Laboratory results published in publication PMC3874162 (Nucleic Acids Research, 2013).
Substitutions are numbered along the chain they refer to.

Legend:
Assay in all cases: EMSA
Cdc13-K622A = target: T1, Cdc13-K622A (Saccharomyces cerevisiae, UniProt P32797 1-924, K622A)
T1 sequence: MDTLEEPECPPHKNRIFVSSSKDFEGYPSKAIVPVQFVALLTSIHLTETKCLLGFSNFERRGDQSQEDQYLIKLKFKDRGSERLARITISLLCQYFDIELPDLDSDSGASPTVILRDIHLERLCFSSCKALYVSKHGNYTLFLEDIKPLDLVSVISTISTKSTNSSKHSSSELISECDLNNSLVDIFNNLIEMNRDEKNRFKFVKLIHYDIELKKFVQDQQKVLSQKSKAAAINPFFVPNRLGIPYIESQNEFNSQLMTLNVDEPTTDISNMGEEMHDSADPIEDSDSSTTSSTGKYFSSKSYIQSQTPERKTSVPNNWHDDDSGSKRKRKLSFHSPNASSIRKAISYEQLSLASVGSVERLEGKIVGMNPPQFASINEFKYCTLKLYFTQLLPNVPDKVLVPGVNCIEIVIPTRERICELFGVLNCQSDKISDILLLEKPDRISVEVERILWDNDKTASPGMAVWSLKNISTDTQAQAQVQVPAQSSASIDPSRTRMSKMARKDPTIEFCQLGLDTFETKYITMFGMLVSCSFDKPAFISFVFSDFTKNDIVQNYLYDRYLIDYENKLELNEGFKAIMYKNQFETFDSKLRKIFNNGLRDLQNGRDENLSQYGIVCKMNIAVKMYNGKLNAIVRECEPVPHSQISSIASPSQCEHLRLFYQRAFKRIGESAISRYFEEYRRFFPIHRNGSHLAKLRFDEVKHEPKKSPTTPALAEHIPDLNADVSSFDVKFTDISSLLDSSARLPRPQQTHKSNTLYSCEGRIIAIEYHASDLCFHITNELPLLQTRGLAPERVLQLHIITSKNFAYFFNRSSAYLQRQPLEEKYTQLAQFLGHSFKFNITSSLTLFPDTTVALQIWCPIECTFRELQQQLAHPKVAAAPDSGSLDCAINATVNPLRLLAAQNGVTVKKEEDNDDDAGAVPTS

Cdc13-MOB-DBD = target: T2, Cdc13-MOB-DBD (Saccharomyces cerevisiae, UniProt P32797 344-694)
T2 sequence: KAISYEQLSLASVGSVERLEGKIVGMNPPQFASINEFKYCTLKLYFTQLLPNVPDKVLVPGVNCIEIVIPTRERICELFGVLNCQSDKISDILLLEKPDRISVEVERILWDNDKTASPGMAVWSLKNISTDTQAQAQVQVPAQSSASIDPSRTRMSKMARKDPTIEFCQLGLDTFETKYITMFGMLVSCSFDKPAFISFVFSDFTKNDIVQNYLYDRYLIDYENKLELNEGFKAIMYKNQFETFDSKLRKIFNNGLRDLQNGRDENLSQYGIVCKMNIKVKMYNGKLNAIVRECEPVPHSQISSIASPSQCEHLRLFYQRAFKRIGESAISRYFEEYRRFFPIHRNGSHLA

Cdc13-DBD = target: T3, Cdc13-DBD (Saccharomyces cerevisiae, UniProt P32797 497-694)
T3 sequence: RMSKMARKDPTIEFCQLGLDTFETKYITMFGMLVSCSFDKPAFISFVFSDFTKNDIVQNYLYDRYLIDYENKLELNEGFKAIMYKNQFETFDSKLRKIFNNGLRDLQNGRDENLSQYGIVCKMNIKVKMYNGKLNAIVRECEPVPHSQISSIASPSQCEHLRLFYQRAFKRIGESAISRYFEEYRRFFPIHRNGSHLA

Cdc13-Y561A = target: T4, Cdc13-Y561A (Saccharomyces cerevisiae, UniProt P32797 1-924, Y561A)
T4 sequence: T1 sequence with Y561A, A622K

GTGTGGGTGTG (ssDNA) [Tel11]
Kd (Cdc13-K622A): 0.05 ± 0.003 nM | Kd (Cdc13-MOB-DBD): 0.0023 ± 0.0002 nM | Kd (Cdc13-DBD): 0.0034 ± 0.0005 nM | Kd (Cdc13-Y561A): 0.017 ± 0.001 nM
